# Reference: patent publication US6972319B1, “Pituitary adenylate cyclase activating peptide (PACAP)receptor 3 (R3) agonists and their pharmacological methods of use” (priority 1999, dated 2005)
# No end group written: not given here.
# T1: PACAP-R3 (human, UniProt P41587 24-438)
# T1 sequence (looked up): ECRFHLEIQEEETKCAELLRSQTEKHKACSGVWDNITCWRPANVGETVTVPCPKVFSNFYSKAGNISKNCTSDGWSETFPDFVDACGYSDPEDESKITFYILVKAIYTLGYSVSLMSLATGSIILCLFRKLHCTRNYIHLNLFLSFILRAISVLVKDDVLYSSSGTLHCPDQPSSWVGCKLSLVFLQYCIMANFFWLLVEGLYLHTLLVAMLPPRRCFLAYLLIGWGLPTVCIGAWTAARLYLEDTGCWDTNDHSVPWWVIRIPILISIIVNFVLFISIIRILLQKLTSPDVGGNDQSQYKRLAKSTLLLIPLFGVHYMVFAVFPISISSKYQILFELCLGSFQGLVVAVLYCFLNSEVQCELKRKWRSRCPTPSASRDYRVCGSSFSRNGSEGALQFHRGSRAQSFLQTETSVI
# Molecular target: T1, PACAP-R3
# Assay: cell-based or functional assay
Binder,R3 EC50,R3 Selectivity
HSDAVFTDNYTRLRKQMAQKKYLNSIKNKR [R3P109],10 nM,100
HSDAVFTDNYTRLRKQMAAKKYLNSIKNKE [R3P156],1 nM,100
HSDAVFTDNYTRLRKQMARKKYLNSIKNKR [R3P110],0.5 nM,200
HSDAVFTDNYTRLRKQMAAKKYLNSIMNKR [R3P124],0.2 nM,–
HSDAVFTDNYTRLRKQMANKKYLNSIKNKR [R3P107],200 nM,–
HSDAVFTDNYTRLRKQMAAKKYLNSIGNKR [R3P121],1 nM,50
HSDAVFTDNYTRLRKQMAAKKYLNSIKNIR [R3P141],0.2 nM,100
HSDAVFTDNYTRLRKQMAAKKYLNSIKNSR [R3P148],0.3 nM,100
HSDAVFTDNYTRLRKQMAAKKYLNSIFNKR [R3P120],0.2 nM,50
HSDAVFTDNYTRLRKQMAAKKYLNSIKNAR [R3P134],0.4 nM,–
HSDAVFTDNYTRLRKQMAPKKYLNSIKNKR [R3P108],300 nM,3
HSDAVFTDNYTRLRKQMAAKKYLNSIKNDR [R3P136],0.3 nM,70
HSDAVFTENYTKLRKQLAAKKYLNDLLNGGT [R3P10],11 nM,0.3
HSDAVFTDNYTRLRKQMAAKKYLNSIHNKR [R3P122],0.2 nM,50
HSDAVFTDNYTRLRKQMAAKKYLNSIKNGR [R3P139],0.4 nM,50
HSDAVFTDNYTRLRKQLAAKKYLNDIKKGGT [R3P12],0.5 nM,> 200
HSDAVFTDNYTRLRKQMAAKKYLNSIQNKR [R3P127],0.5 nM,600
HSDAVFTDNYTRLRKQMAAKKYLNSIKNTR [R3P149],0.5 nM,80
HSDAVFTDNYTRLRKQLAAKKYLNDIKK-NH2 [R3P13],5 nM,33
HSDAVFTDNYTRLRKQMAAKKYLNSIKNHR [R3P140],0.3 nM,50
HSDAVFTDNYTRLRKQMAAKKYLNSIDNKR [R3P118],0.5 nM,30
HSDAVFTDNYTRLRKQMAAKKYLNSIKNKA [R3P153],0.2 nM,200
HSDAVFTDNYTRLRKQMAAKKYLNSIKNMR [R3P143],0.2 nM,30
HSDAVFTDNYTRLRKQMAYKKYLNSIKNKR [R3P115],6 nM,50
HSDAVFTDNYTRLRKQMAIKKYLNSIKNKR [R3P103],0.05 nM,8
HSDAVFTDNYTRLRKQMAAKKYLNSIKNKD [R3P155],0.4 nM,100

# Next, values leading:
R3 EC50,R3 Selectivity,Binder
0.2 nM,30,HSDAVFTDNYTRLRKQMAAKKYLNSIKNLR [R3P142]
1 nM,400,HSDAVFTDNYTRLRKQMAGKKYLNSIKNKR [R3P101]
1 nM,200,HSDAVFTDNYTRLRKQMAAKKYLNSIPNKR [R3P126]
0.8 nM,50,HSDAVFTDNYTRLRKQMAAKKYLNSIKNVR [R3P150]
0.2 nM,500,HSDAVFTDNYTRLRKQMAKKKYLNSIKNKR [R3P104]
0.2 nM,500,HSDAVFTDNYTRLRKQMAAKKYLNSIKNRR [R3P147]
3 nM,3,HSDAVFTDNYTKLRKQLAAKKYLNDILNGGT [R3P11]
0.3 nM,–,HSDAVFTDNYTRLRKQMAVKKYLNSIKNKR [R3P113]
0.3 nM,100,HSDAVFTDNYTRLRKQMAAKKYLNSIKNER [R3P137]
3 nM,300,HSDAVFTDNYTRLRKQMASKKYLNSIKNKR [R3P111]
1 nM,50,HSDAVFTDNYTRLRKQMAAKKYLNSISNKR [R3P129]
17 nM,3,HSDAVFTDNYTRLRKQMAVKKYLNDLKKGGT [R3P14]
60 nM,5,HSDAVFTDNYTRLRKQMAHKKYLNSIKNKR [R3P102]
0.3 nM,200,HSDAVFTDNYTRLRKQMAAKKYLNSIRNKR [R3P128]
0.3 nM,3,HSDAVFTDNYTRLRKQMALKKYLNSIKNKR [R3P105]
0.3 nM,70,HSDAVFTDNYTRLRKQMAAKKYLNSIVNKR [R3P131]
0.3 nM,100,HSDAVFTDNYTRLRKQMAAKKYLNSIKNQR [R3P146]
2 nM,10,HSDAVFTDNYTRLRKQMAWKKYLNSIKNKR [R3P114]
0.5 nM,30,HSDAVFTDNYTRLRKQMAAKKYLNSIENKR [R3P119]
0.2 nM,50,HSDAVFTDNYTRLRKQMAAKKYLNSIWNKR [R3P132]
1 nM,40,HSDAVFTDNYTRLRKQMAAKKYLNSITNKR [R3P130]
3 nM,100,HSDAVFTDNYTRLRKQMAAKKYLNSIKNNR [R3P144]
0.5 nM,100,HSDAVFTDNYTRLRKQMAAKKYLNSIKNPR [R3P145]
1 nM,20,HSDAVFTDNYTRLRKQMAAKKYLNSIANKR [R3P116]
2 nM,30,HSDAVFTDNYTRLRKQMAAKKYLNSINNKR [R3P125]
